The test system of data set [1] is MS2 coat protein. In words: apparent KD of MS2 coat protein, switch ON state; designed switch direction (-1 OFF switch, 1 ON switch): 1; higher = weaker reporter binding. The conditions noted are these: FMN input: 0 or 200 uM; Eterna round: R93 (includes R88 designs). In a few lines:
(§1)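 In 100 mM Tris-HCl pH 7.5 with 80 mM KCl and 4 mM MgCl2, and without or with constant ligand, SNAP-549-labelled MS2 coat protein was titrated in twofold steps from 0.7 or 1.5 nM to 3 µM. Per-step times went from 0.8–1.5 h down to 10–20 min. The RNA switches were transcribed on-chip from Illumina sequencing clusters, and apparent KD is the per-design median of normalised cluster binding-curve fits.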

For data set [2], the system named is MS2 coat protein. The data set can be described thus: apparent KD of MS2 coat protein, switch OFF state (with FMN for OFF switches, without FMN for ON switches); designed switch direction (-1 OFF switch, 1 ON switch): 1; higher = weaker reporter binding. The conditions noted are these: FMN input: 0 or 200 uM; Eterna round: R93 (includes R88 designs). In a few lines:
as §1

As to “AUAAAACAUGAGGAUCACCCAUGUAGACAUAUGGGAGGAUAUACUAGAUCGAAAGAUCUAGUAGAAGGUCUUAAAA [JL Mod of Eli 10]”, the “apparent KD of MS2 coat protein” value with MS2 coat protein [1] was 205 nM; in the data set on MS2 coat protein [2], 183 nM.
Consider “GAAAAACAUGAGGAUCACCCAUGUGGAAAUAUGGAAGGAUAUACAAAGACGAGAGUCAAAGUAGAAGGUCUAAAAG [Mat - Same State 1 - Eli mod - D20]”, for which the “apparent KD of MS2 coat protein” value stood at 17.3 nM in the data set on MS2 coat protein [1] and 26.3 nM in the data set on MS2 coat protein [2].
“AGAUCUAGAAGGUAGGAUAUGUGAAAAAAUACAUGAGGAUCACCCAUGUGAUGAAUAAAAAGAAAAUAGAAGGACCAUCUAGAUC [Cross swing 2]”: the “apparent KD of MS2 coat protein” value with MS2 coat protein [1] stood at 16.5 nM; in the data set on MS2 coat protein [2] it was 40.7 nM.
Taken in the same sequence, the figures for “AAAAAACAUGAGGAUCACCCAUGUCAAAAGACAUGAGGAUAUGUGUGGAAACCAUACUAUACAGAAGGCAUAAAAA [SS1 - 1008]” were 105 nM and 159 nM.
Regarding “AAAUAAAUGACUAAGGAUAUAUCAGAAAAAACAUGAGGAUCACCCAUGUAAUAAUAAAAAGGGUGAUAGAAGGUAGUCAACAAAC [74%, More Paria 4]”, the “apparent KD of MS2 coat protein” value was 25.6 nM in the data set with MS2 coat protein [1] and 118 nM with MS2 coat protein [2].
As to “AUAAUAAAAACACAGGAUAUCCAAAAGAAAACAUGAGGAUCACCCAUGUAAAGAAAAUAAAAAUGGGAGAAGGGUGAAAUAAAUA [Mat - Same State 2 - JL mod - D34]”, the entries for the “apparent KD of MS2 coat protein” value in the data set with MS2 coat protein [1] and in the data set with MS2 coat protein [2] were 37.4 nM and 42.9 nM, respectively.
On to “GGGAGACAUGAGGAUCACCCAUGUGAGAAGAGGCGAGGAUAUCGAAAGAAAGAAGAGAAACGAGAAGGCGCGAGGC [salish99-SS1-063]”, for which the “apparent KD of MS2 coat protein” value with MS2 coat protein [1] was determined as 37.5 nM; in the data set on MS2 coat protein [2] it was 53.6 nM.
On to “UGGAGACAUGAGGAUCACCCAUGUGAGAAGAGGCGAGGAUAUCGAAAGAAAGAAGAGAAACGAGAAGGCGCGAGUU [salish99-SS1-035]”, for which the “apparent KD of MS2 coat protein” value in the data set with MS2 coat protein [1] came to 27.2 nM; with MS2 coat protein [2], 41.6 nM.
Regarding “AAAGACAUGGUGUAGGAUAUAUUAAUAGUCACAUGAGGAUCACCCAUGUUCAUAUAUAUGAACGAGUAGAAGGACGAUGAAAAAA [SameState2 Malc#3]”, the entries for the “apparent KD of MS2 coat protein” value in the data set with MS2 coat protein [1] and in the data set on MS2 coat protein [2] were 497 nM and 205 nM, respectively.
For “AGAAAACAUGAGGAUCACCCAUGUAGAAAUAUGGGAGGAUAUACAAAGACGAAAGUCAAAGUAGAAGGCCUGAAGA [Mat - Same State 1 - JL mod - D92]” the same measures were 20.4 nM and 75 nM.
“AAAAGACAUGAGGAUCACCCAUGUGAAAACGUGCGAGGAUAUGUGUGGAAACCGUACUAUACAGAAGGCGCGUGUC [SS1 - 84]”: the “apparent KD of MS2 coat protein” value with MS2 coat protein [1] was found to be 22.2 nM; in the data set on MS2 coat protein [2], 33.9 nM.
Consider “CUGAGGAAGAGAGAGGAUAUCCAAAGGAAAACAUGAGGAUCACCCAUGUAAAAGGUAGGAAAUUGGGAGAAGGCUCAAGAGAGAG [salish99-ss2-068]”, for which the “apparent KD of MS2 coat protein” value in the data set with MS2 coat protein [1] amounted to 22.4 nM; in the data set with MS2 coat protein [2], 34.3 nM.
Taken in the same sequence, the figures for “GUAGACAUAGUUCAGGAUAUAUGAAUAGUCACAUGAGGAUCACCCAUGUCCAUUUAUAUGGGCACAUAGAAGGGAGGUAGUUAAC [Mat - Same state - Malcolm Mod - D123]” were 891 nM and 1140 nM.
For “GGAAAUAAAAGAGAGGAUAUCCAAAGGAAAACAUGAGGAUCACCCAUGUAAAAGGAAGGAAACUGGGAGAAGGCUCAAAAUAAGG [salish99-ss2-010]” the same measures were 18.7 nM and 32.2 nM.
Taken in the same sequence, the figures for “UAAGUACAUGAGGAUCACCCAUGUUGGAAUAGAGCAGGAUAUGUGCAGAGGGAAAUAAAAACAGAAGGGCUAAGAA [Same State #3]” were 25.9 nM and 33 nM.
On to “GUAGAACAUGAGGAUCACCCAUGUGAGUACAGUGUAGGAUAUGGGCAUGAGAAGUCAUUUCUAGAAGGGCAAAUAA [Raatbiin]”, for which the “apparent KD of MS2 coat protein” value with MS2 coat protein [1] came to 207 nM; in the data set with MS2 coat protein [2], 112 nM.
As to “AAGAAACAUGAGGAUCACCCAUGUAAGAUAAACACAGGAUAUGCAAAAGAAAGAAAGAAAGCAGAAGGGUGAAGAA [Mat - Same State 1 - Tesla mod - 50]”, the entries for the “apparent KD of MS2 coat protein” value in the data set with MS2 coat protein [1] and in the data set on MS2 coat protein [2] were 15.7 nM and 42.3 nM, respectively.
With “GAGGACAUAGUACAGGAUAUAUGAAUAGUUACAUGAGGAUCACCCAUGUGCAUUAAUAUGCGAACAUAGAAGGGUGGUAGUUAUC [Mat - Same state - Malcolm Mod - D128]”, the “apparent KD of MS2 coat protein” value with MS2 coat protein [1] came to 119 nM; in the data set on MS2 coat protein [2], 64.4 nM.
For “UUACAGUGCGGGUAGGAUAUGUAGGGUGGUACAUGAGGAUCACCCAUGUAUCCACCCUUCGACCGGCAGAAGGGCCUGUCACUAC [Atarzale]” the same measures were 12 nM and 12.8 nM.
For “AGAAAACAUGAGGAUCACCCAUGUAGGAAUAUGGGAGGAUAUACAAAGACGAAAGUCAGAGUAGAAGGCCUAAAAA [salish99-SS1-086]” the same measures were 17.5 nM and 92.3 nM.
For “AAAGAAUGAAGGCAGGAUAUGUGAAAAAAAACAUGAGGAUCACCCAUGUAAUAAAUGGGUACAAAACAGAAGGGCCAAGAAAUAA [SS 2 Tesla 2]”, the “apparent KD of MS2 coat protein” value in the data set on MS2 coat protein [1] is 170 nM; in the data set on MS2 coat protein [2] it was 398 nM.
Take “AAGAAACAUGAGGAUCACCCAUGUAGAAAUAUGGGAGGAUAUACAAGGACGGAAGUCAAGGUAGAAGGCCUAAGAA [Mat - Same State 1 - Meechl mod - D133]”: the figures for the “apparent KD of MS2 coat protein” value in the data set with MS2 coat protein [1] and in the data set with MS2 coat protein [2] were 26.7 nM and 112 nM, respectively.
Taken in the same sequence, the figures for “AUGUAUAGCCUCGAGGAUAUCCUGUCAUGCACAUGAGGAUCACCCAUGUAAGAGAGAGUUUAAUGGGAGAAGGCGAGUUCUCGGU [JR_SS002_Sub1706]” were 33.4 nM and 66.6 nM.
Regarding “AAAUUACAUGAGGAUCACCCAUGUAACGACGUUACAGGAUAUGUGGGUGAAAAUAGCAUGACAGAAGGGUACCGUA [SameState1 Malc#38]”, the “apparent KD of MS2 coat protein” value in the data set with MS2 coat protein [1] stood at 78.8 nM; in the data set with MS2 coat protein [2], 28.4 nM.
For “UAUUAUUACACGAAGGAUAUCGAUAAUAGUACAUGAGGAUCACCCAUGUUCAAAUCAUUUUAGUACGAGAAGGUCGAGGGUAAAG [JR_SS002_Sub710]”, the “apparent KD of MS2 coat protein” value in the data set on MS2 coat protein [1] was 19.4 nM; with MS2 coat protein [2], 23.4 nM.
For “AAAAGACAUGAGGAUCACCCAUGUAAAAACGUAGGAGGAUAUGUAUGGAAACCAGACUGUACAGAAGGCCUUUGUC [SS1 - 73]” the same measures were 20 nM and 19.4 nM.
Consider “AUAAAACAUGAGGAUCACCCAUGUCCGACAAAUCAAGGAUAUGAGAGCAAAACCAGGCUGUUAGAAGGUGAAAGAA [Atlausa]”, for which the “apparent KD of MS2 coat protein” value in the data set with MS2 coat protein [1] and in the data set on MS2 coat protein [2] was 154 nM throughout.
For “GGAGCCGGCACUGAGGAUAUUCAUAUUAAAACAUGAGGAUCACCCAUGUAGGCCAGAAGGCCUUGGGAGAAGGCAGGUCGGCUCG [Arinin]”, the “apparent KD of MS2 coat protein” value with MS2 coat protein [1] came out at 16.5 nM; in the data set on MS2 coat protein [2], 363 nM.
For “GAAAAACAUGAGGAUCACCCAUGUAGAAAUAUGGGAGGAUAUACAAAGACGAAAGUCAAAGUAGAAGGCUCAAAAG [Starry Same State 1.2 (mat747 round 1 mod)]”, the “apparent KD of MS2 coat protein” value in the data set on MS2 coat protein [1] is 28.3 nM; in the data set with MS2 coat protein [2], 164 nM.
